In patent US20240123029A1 (HUMANITAS MIRASOLE S P A, published 2024):

Molecular target: T1, SARS-CoV-2 Nucleocapsid protein, His Tag (SARS-CoV-2, UniProt P0DTC9 1-419)
T1 construct: Bought
Experiment: ELISA, His-tagged viral protein captured on nickel plates (6.25-50 pmol/mL)

B1: Purified C-reactive protein (CRP) (other)
chain: QTDMSRKAFVFPKESDTSYVSLKAPLTKPLKAFTVCLHFYTELSSTRGYSIFSYATKRQDNEILIFWSKDIGYSFTVGGSEILFEVPEVTVAPVHICTSWESASGIVEFWVDGKPRVRKSLKKGYTVGAEASIILGQEQDSFGGNFEGSQSLVGDIGNVNMWDFVLSPDEINTIYLGGPFSPNVLNWRALKYEVQGEVFTKPQLWP
  binding result: no binding (tested: CRP 3 µg/mL (25 nM))
